Here are results for 5 substances from publication PMC4428900.

Read-outs that look alike come from different tables or passages of the source.

Experiment [1] has as its target NS4B (genotype 1b) fused to mCherry (Hepatitis C virus genotype 1b) (UniProt Q9WMX2). Put plainly: FRET or BRET. (In general: In BRET a luciferase serves as donor, and the signal depends on an acceptor being close.)
Experiment [2] has as its target NS4B (genotype 1b) fused to GFP (Hepatitis C virus genotype 1b) (UniProt Q9WMX2). Put plainly: FRET or BRET.
The target in experiment [3] is NS4B (genotype 2a) fused to mCherry (Hepatitis C virus genotype 2a) (UniProt Q99IB8). Put plainly: FRET or BRET.
The target in experiment [4] is NS4B (genotype 2a) W204A fused to mCherry (Hepatitis C virus genotype 2a). Briefly: FRET or BRET.
Experiment [5] deals with NS4B (genotype 2a) fused to mCherry (Hepatitis C virus genotype 2a) (UniProt Q99IB8). Put plainly: FRET or BRET. The source holds these as a separate data set.
Experiment [6] concerns the target pBIND-NS4B C-terminal domain W204A (Hepatitis C virus genotype 2a). Put plainly: two-hybrid.

Consider “NS4B (genotype 1b) fused to GFP (from UniProt Q9WMX2 1712-1972) (natural protein)”, for which the mean FRET efficiency (EF) in experiment [1] came out at 6.6.
In turn, “NS5A (genotype 1b) fused to mCherry (from UniProt Q9WMX2 1973-2419) (natural protein)” had a mean FRET efficiency (EF) in experiment [2] of 6.
Turning to “NS5A (genotype 2a) a.a. 1–352 fused to GFP (domain or fragment)”, in experiment [3], the mean FRET efficiency (Ef) amounted to 9.3.
Regarding “NS5A (genotype 2a) fused to GFP (from UniProt Q99IB8 1977-2442) (natural protein)”, the mean FRET efficiency (Ef) was 1.3 in experiment [4], 6.5 in experiment [5] and 9.6 in experiment [3]. In addition, the mean FRET efficiency (EF) amounted to 6.5 in experiment [1] and 5.5 in experiment [3].
The substance “pACT-NS5A (full length NS5A of genotype 2a fused to VP16) (from UniProt Q99IB8 1977-2442) (natural protein)” displayed a reduction in luciferase activity compared to the wild type in experiment [6] of 30%.
